This is an account of results in a protein production outcome set (Wang et al. 2014).
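Also: failed if final PepcDB status was selected cloned or expressed and not failed if soluble or beyond.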

This data set can be described thus: label from the status in PepcDB records.
“MKRTHLASFSNRDKTQEEEGEDGNGDNRVIMNHYKNYEAGLIPWPPKNYTCSFCRREFRSAQALGGHMNVHRRDRAKLRQIPSWLFEPHHHTPIANPNPNFSSSSSSSTTTAHLEPSLTNQRSKTTPFPSARFDLLDSTTSYGGLMMDREKNKSNVCSREIKKSAIDACHSVRCEISRGDLMNKKDDQVMGLELGMSLRNPNQVLDLELRLGYL”: the protein production entry is on record as “not failed”.
The result for “MKRTLYSGVGLLLVGLLFLAFNLLSSLLLRDQQFDLTQQKLYTFSAGTQEVLDSLDEPLNLYLFFSKSRASDLPALRNYARRVEEVLDLYARRSHGNVRLFVIDPLPFSDDEDRAARFGLQAPPIGPNGEAIYFGLAATNPTDGLQVIPFFSPEEEPLLEYDLSRLVQALAQRERTVVGLMSSLPMTGQAPTDGQPGSRPWAMMDKLYQQFDIRTLGLASTEIPAEVSVLMLVHPRQLSEQTQYAIDQFVLRGGKLLAFVDPLSLADADGGKSSDLAPLLRSWGVQLRPDTLLADASFAMIKPNAERRPERNPTWLHLPGDTFPHDNVLTTGLESLNLASVGLLEPLGGASTRFIPLLHSSAHSMPLSLERFRQSSTEQLNATLVPTGERYVLAAKVEGPATSAFPADRGKQGEGLSDSANIHVLLVADTDLLSNPLWLQEQPGHNEPQVWADNDLFVGNALDYLSGSDALIDLRSRGHTKRPFTRVEALRREAGLRAQEQLNALQQSLNDTDRNLRTLQQSMDAGDQEVTPEMEATLRRFIDDKLRIRQQLRQLQFQLNADVERLGEQVKLANTVLLPALLTLFLLLHWSWRSMRRRRG” reads “failed”; that for “MKRVLVLGATGRTGNFVIKELSKYKSIQLIAGLRSQKDKERLPKINAAIETVVIDIADVCSLRKALTDSDIVVQAIRLRGDISENALIQLDQRIHQAFNPSRKTHLVTVGGAGALKLEANQRFWENEYFPRQTLPRGIAHARLRDYLEKSFFNHTWTYLIPPPVYVAEGARTGSYNRYSSAQKEDFFLSKSISYADFALAIGNAVMEEWQGVYLIAEKELEHHHHHH”, “failed”.
As for “MKSCSRSSSVRLCVRCTGLSLWCCIGHATSVIKSVRNMQSVIGNGYKRSPTGKESRMTPLTSDFLSSSVVFLSAAVIAVPLAQRAGLGSVLGYLLAGIAIGPWGLGLIRDVQAIMHFAEFGVVLLLFLIGLELNPKKLWNLRGPILGLGGAQVVVTTAVLSSVAYLLGVSWQSALVIGMALALSSTAIALRVIEEHGLTRTEAGQSGFAVLLFQDIAVIPMLALLPILAGNSSGDWLNALWMTGGIAALLLGGHFLLNPLFRYIALSGVRELFTVAALLLVVGIALLMQKVGLSMALGTFLAGVILAESEFRHELEIAIDPFKGLLLGLFFISVGMAVDVGLLLVKPLQIMLAVLGLVIVKGLVLYLLARLSGTVAKARSKMAAILSQGGEFAFVIFTAASAEGLLTASQVSFLLVVVSLSMVTTPLLLSAQKYWFARQLNIEENPLTPDVENKEPRVIIVGFGRFGQIVGRLLYANKIKVTILESDASQVRLLRKYGYKVFYGDATNLELLRAAGVEQAEALVVCTDDPEQVITIVELCQQHFPNLKLLARARSRVEAYQLMSLGVQNYTRETFLSALDLGRKALVQLGMHPYQAKRAEEHFHRLDKTMLKELLPQHNEDKQLELRAKEARTELEEIFSREMDSDQLSRRYWEKE”, the entry is “failed”; as for “MKSEKETIYDYAAELKLLSFKEELECTLSLAAEENWNHLQFLTELLGKESARRRECRRRSRIRSAGFPQMKYLHELVMEDMPKEAQVILPELETLDFIRQGRNLVLYGNPGTGKTHIATALGIKACQQDFTVLFTSVPVLLTQIREAKSAKTLRTLQLRFEKYDLVICDEFGYVSCDKEGGELLFNHLSLRAGKKATIITTNLAFNRWNEIIKDKVLVAAMVDRLTHKAYLVNMTGLSYRLKETQKMRQDKLEHHHHHH”, “failed”; as for “MKSILSLFSGIGGLCHHGIAAAGLSHKFQVKQFVEISPYSQSRLRHEQPQTPIHSDITTYHCHRGQFDIVAGGLPCQGTSNAGNRQGLDDPRSALWAEQFRIIESDRPAIALIENPTGLLYRGLEQIICDLDSIGYMGEWNCISAQQVGLPHQRKRIFIIAYSNGLFNQVVPAPWSNQIGNHITQVRLSLETRSYQPGISKVASRIPIGVAKNIPGNYDARRAYGLSCSPRQAAVAWKRIDYLCSLLSYQEAS”, “failed”.
In the case of “MKSITQLENKKVLVLGLAKSGEAAARLLAKLGAIVTVNDGKAFEENPSAQSLLEEGIKVVCGGHPLELLDENFELMVKNPGIRYDNPMVARALEKEIPVWTEVELAYLVSEAPIIGITGSNGKTTTTTMIADVLNHGGKSGVLSGNIGFPASEVAQSVTNQDTLVMELSSFQLMGIESFHPHIAVITNLMPTHIDYHGSFEEYVAAKWNIQNEMTSDDFIILNFNQDLAKELATQTNAQVVPFSTVEKVDGAYLENGGLYFKGELLMHADELGVPGSHNVENALATIAVAKLSGVSNQAIKETLSSFGGVKHRLQFVDTIDDVKFYNDSKSTNILATQKALSGFDNSKVILIAGGLDRGNEFDELIPDITGLKKMVILGESAPRVKRAADKAGVTYLDAKDVADATRIAFEQASAGDVVLLSPANASWDMYKNFEVRGDEFITTVERLKG”, the protein production result is on record as “failed”.
Consider “MKSKDSPIINEQFWDALFFNGTMPWDRSQTPNELKHYLKRIADKTHSVFIPGCGAAYEVSHFVDCGHDVIAMDYSAEAVNLAKSQLGQHQDKVMLGDVFNADFSREFDVIYERAFLAALPREIWGDYFAMIERLLPSNGLLVGYFVISDDYRSRFPPFCLRSGEIEQKLEANFHLIESTPVTDSVDVFKGKEQWMVWQKK”, for which the protein production entry is recorded as “failed”.
On to “MKSKRGFTLLEVLVALAIFATAAISVIRSVSQHINTVNYLEEKMFAAMVVDNQMAQVMLNPQSLAAREGSEQMAGRTWYWKLSPVKTADNLLKAFDVSVATEKGATPVVTVRSYVAN”, for which the protein production result is reported as “failed”.
For the sequence “MKSLKGIIYAMISSGTFGLIPLFTIPLMGNMEMNESNILFYRFLFSTLMMGAVCLLHKSTLKINMKHLISIIGLGALYALTALFLIYSYHYITSGVATTIHFLYPICVSFLMVVFFKEQKSKSLFLAASLSLIGVALMCWSGGGSIRLMGIGLAALTILTYGIYIVALNQLDIGKLPAEVLTFYVLLGGCVIFFIYSLFTAGISSIPSTKAGFYILALAFLSTVISDLTLILAVKYAGSTTTAILGSMEPLVAVVVGVLVFSEHFTLQSLIGLLLILMSVIIVILADQQKKSKRITEQKIIKPH”, the protein production result is “failed”.
For the sequence “MKSLYQMNHIGHPFMYPKMDITKMNKTNNQNIPNKAHNPNNSSNMNTTKKSYGTSLNYIKKENSSKNSIYNNYEYLDASHLEMLDLNKNIKNILPKPMKPSLDLESLCKETTSTMKKSKMHCMKSGENQNKNVKHFYEMGTPQIIGTYIQPLHHNTNSFNQNNFPKNHMFPLLPSSPFFQPPNFRTNLTQASSTFIPLPHANKSTNIYGMPSYLIPENKPQNLTVTVVPNKDKDSIEKEAKHLKALLDSSSKGIVNSTPDYQKIQPSTLSNYNDKESDFSFGKNDNYEHAEYSEQNCNDENDTENNYNSFVNEFYDPHNSISYNNVNEFLKNSNQKNQQHAFRLESNEEVARKVHKEFTYPKGTSLNKINILNQNYKEEGEQQQENETKNNMNMQERDEERQTMKKDSSIPKRTQLSKKKEHNNNNIVLKKHEPSTCFKNPKTYINIRLGKPKKLYITNSSDPIDKKLSEWHNTHNSQIGWKKYRRGVYTFGKTEVILSLVHDKIIVKKINGKHIKDNLLTVEKFVSLNELYEIQQEENDNMLKKRGVKFFNF”, the protein production entry is given as “failed”.
The result for “MKSRPRLLLVYPATHKLGWVRRFQLPSLSLKQVAAVTPPEWEVVMADEVHEDVPFGEKFDLVGITAMTHQAVRAYEIADRFRAQGVPVVLGGIHPTVLPEEAQAHADAVLIGEAEPVWAKLLDDFLAGRLAPLYRAPIPTDDRLVIPWSRRDILAGRQYLTTQTVQASRGCPYDCPFCTVTPYFGRTFRYRNPDDVLAELRSFEGKLMVFVDDNILGDPVRAKPILEGMAGMNLRWGGQANLRFAEDPELVKLVARSGCIGIFVGIESVTGPHANHAKTGNGSSQIDLVKRVRDAGIVLEASMIFGFDDHDEGIFERTVRFLEECAPSIPTFNVLTPYPGTSLFKQFDREGRLLHKDWSRYDHGQVVFRPKQMTPERLYRGWQEARWEAYRLPAIASRVMKGKGKLVNLAYNFLRRGGIERPDRIVHIREVAEP” reads “failed”; that for “MKSSKAEKELTHQYVLNDSLHQLFDAVNIVSVQGYDEQRRVIYWNVGSELLYGYTQKEALGQKLEDLIIPKPMREIVIGAHSDWIKKGIEIPASEITLCHKNGNDVNVFSSHALFTNQYNKKQMYCIDVNLA”, “failed”.
As for “MKSVSTWALSFFSDELSRRAVSDCYLWTTAISLLLILLLHIFFSTKFRFFTSAPSSSSSSSSSSSPSTESVPANSQSRISKLVSDEDLKFLIENLEEETNDSTEIWEHVIHKSNDRISYSAKRCKPKDGGGPMKYLSVTVFEGFSAEIVRDFYMDNDYRKLWDKTVVEHEQLQVDSNTGIEIGRTIKKFPLLTSREYVLAWRLWQGKEKKFYCFTKECDHNMVPQQRKYVRVSYFRSGWRIRQGNILSTFDTYLTDTFDTLAAVPGRNACEIKMFHQENAGLNVEMAKLAFSKGIWSYVCKMENALCKYIATSHRTQGPILSAVTLMKEVPSELETGTDNVTGSMETSSGEGVLSHVVAAKQKKKMRKPSTKLIAKGLVLVGGAICLSRGPSALGAKVALAYLLTKLNKRGTSLNQTTQTTTI”, the protein production entry was “failed”.
As for “MKSWIVKEIKINGLSYFGPLIFTVLPIAERIYKISLNSYIMINYLILVIFLSFICTYLVLSNLFNGIMYTLTYTVGISPKEIILTRLFLFSTIPVLPIAMALWMTSSLTTLAKFIIQIYILVLMSTIIGIIFKNDIIALIMDFIISALGLSVKINFLFPFLSGQLNPLSGIIVVLLLALTIYLLSNVELQKVERV”, the protein production result is “failed”.
For “MKSYMTQRLDEYRDGNEDKGRLLVSCPDQPGIVSAVSAFLFEHGANIIESNQYTTDPEGGRFFLRIEFDCAGIREKKSSLQAAFASVAEKFDMTWSLTLASELKRVAIFVSKNLHCLHELIWEWQTGNLMAEIAVVISNHEEARELVERLNIPFHYMKANKDIRAEVEKKQLELLEQYDVDVIVLARYMQILTPDFVSAHPNRIINIHHSFLPAFIGANPYKRAYERGVKLIGATSHYVTNDLDEGPIIEQDIKRVDHRDNAETLKNIGRTIERSVLARAVKWHLEDRVIVHENK”, the protein production entry is given as “not failed”.
The result for “MKSYVLGEFGAEAALLDAARTLRARGGATLDLHSPYPLHGAEEALGLRKSTVPLVALVAGITGAVSGYLLQWYTVGYAWPLNVGNRPPHSAPAFIPVTFELGVLFSALAIFVGLLAVYFGFPRVHHPVFEVEAFRSASIDGLWLSAEVEAGDADAVAAELRRLGARLVSVVPEGK” reads “failed”; that for “MKTAIVTDSASYLSAADVEKYHIHVVPITVIFGHQTYLENVEITSKEFYERMRTAPELPTTTQITLGQMQTTYDQLAKAGYDAVISIHLSSGITSFITNLESYLPNVTNIKVYPFDSLITAGGEAYMVLLAAKLVTEGYSPEQVIAQLKKIRETTGVYFVVDNLSHLVRTGRLSNASGLVGNLLRIKPVLTFQDGKIVAIQKERTMRRAYAAIKAKLAAEIAAVDYPLRVTIENGNNPKLQAEWTADLKASFPDLTIDEGEIGPVVGVHVGEGVMGLIWARDWEKWTI”, “failed”; that for “MKTAQHETISNREFYFVLYMMLLYVTGWVIDVNGLFLSSYFNLAGEIMLPLVGGIVGLFIMSVNKQQTK”, “failed”.
